Assay results from patent publication US20090208416A1.

Tests used:
[1] = biological target: NKG2A on cynomolgus monkey NK cells (cynomolgus monkey) (UniProt Q68VD2); test: FACS cynomolgus whole blood, mean of 10 animals
[2] = biological target: NKG2A on rhesus monkey (Macaca mulatta) NK cells (rhesus monkey (Macaca mulatta)) (UniProt Q9MZJ3); test: FACS rhesus whole blood, animal R00099
[3] = biological target: NKG2A on rhesus monkey (Macaca mulatta) NK cells (rhesus monkey (Macaca mulatta)) (UniProt Q9MZJ3); test: FACS rhesus whole blood, animal R00093
[4] = biological target: NKG2A on rhesus monkey (Macaca mulatta) NK cells (rhesus monkey (Macaca mulatta)) (UniProt Q9MZJ3); test: FACS rhesus whole blood, animal R00025
[5] = biological target: NKG2A on rhesus monkey (Macaca mulatta) NK cells (rhesus monkey (Macaca mulatta)) (UniProt Q9MZJ3); test: FACS rhesus whole blood, animal R00041
[6] = biological target: NKG2A on cynomolgus monkey NK cells (cynomolgus monkey) (UniProt Q68VD2); test: FACS cynomolgus whole blood, animal T788
[7] = biological target: NKG2A on rhesus monkey (Macaca mulatta) NK cells (rhesus monkey (Macaca mulatta)) (UniProt Q9MZJ3); test: FACS rhesus whole blood, animal R00013
[8] = biological target: NKG2A on rhesus monkey (Macaca mulatta) NK cells (rhesus monkey (Macaca mulatta)) (UniProt Q9MZJ3); test: FACS rhesus whole blood, animal R00101
[9] = biological target: NKG2A on rhesus monkey (Macaca mulatta) NK cells (rhesus monkey (Macaca mulatta)) (UniProt Q9MZJ3); test: FACS rhesus whole blood, animal R00085
[10] = biological target: NKG2A on rhesus monkey (Macaca mulatta) NK cells (rhesus monkey (Macaca mulatta)) (UniProt Q9MZJ3); test: FACS rhesus whole blood, animal R00061
[11] = biological target: NKG2A on rhesus monkey (Macaca mulatta) NK cells (rhesus monkey (Macaca mulatta)) (UniProt Q9MZJ3); test: FACS rhesus whole blood, animal R00023
[12] = biological target: NKG2A on cynomolgus monkey NK cells (cynomolgus monkey) (UniProt Q68VD2); test: FACS cynomolgus whole blood, animal 1221
[13] = biological target: NKG2A on cynomolgus monkey NK cells (cynomolgus monkey) (UniProt Q68VD2); test: FACS cynomolgus whole blood, animal T270
[14] = biological target: NKG2A on cynomolgus monkey NK cells (cynomolgus monkey) (UniProt Q68VD2); test: FACS cynomolgus whole blood, animal AL389
[15] = biological target: NKG2A on rhesus monkey (Macaca mulatta) NK cells (rhesus monkey (Macaca mulatta)) (UniProt Q9MZJ3); test: FACS rhesus whole blood, animal R00077
[16] = biological target: NKG2A on cynomolgus monkey NK cells (cynomolgus monkey) (UniProt Q68VD2); test: FACS cynomolgus whole blood, animal M859
[17] = biological target: NKG2A on rhesus monkey (Macaca mulatta) NK cells (rhesus monkey (Macaca mulatta)) (UniProt Q9MZJ3); test: FACS rhesus whole blood, animal R00037
[18] = biological target: NKG2A on rhesus monkey (Macaca mulatta) NK cells (rhesus monkey (Macaca mulatta)) (UniProt Q9MZJ3); test: FACS rhesus whole blood, animal 34459
[19] = biological target: NKG2A on rhesus monkey (Macaca mulatta) NK cells (rhesus monkey (Macaca mulatta)) (UniProt Q9MZJ3); test: FACS rhesus whole blood, mean over animals
[20] = biological target: NKG2A on cynomolgus monkey NK cells (cynomolgus monkey) (UniProt Q68VD2); test: FACS cynomolgus whole blood, animal AL303
[21] = biological target: NKG2A on cynomolgus monkey NK cells (cynomolgus monkey) (UniProt Q68VD2); test: FACS cynomolgus whole blood, animal AL210
[22] = biological target: NKG2A on cynomolgus monkey NK cells (cynomolgus monkey) (UniProt Q68VD2); test: FACS cynomolgus whole blood, animal R390
[23] = biological target: NKG2A on rhesus monkey (Macaca mulatta) NK cells (rhesus monkey (Macaca mulatta)) (UniProt Q9MZJ3); test: FACS rhesus whole blood, animal O967
[24] = biological target: NKG2A on rhesus monkey (Macaca mulatta) NK cells (rhesus monkey (Macaca mulatta)) (UniProt Q9MZJ3); test: FACS rhesus whole blood, animal R99273
[25] = biological target: NKG2A on rhesus monkey (Macaca mulatta) NK cells (rhesus monkey (Macaca mulatta)) (UniProt Q9MZJ3); test: FACS rhesus whole blood, animal R00007
[26] = biological target: NKG2A on rhesus monkey (Macaca mulatta) NK cells (rhesus monkey (Macaca mulatta)) (UniProt Q9MZJ3); test: FACS rhesus whole blood, animal R00073 (5.6 kg)
[27] = biological target: NKG2A on cynomolgus monkey NK cells (cynomolgus monkey) (UniProt Q68VD2); test: FACS cynomolgus whole blood, animal AK565
[28] = biological target: NKG2A on rhesus monkey (Macaca mulatta) NK cells (rhesus monkey (Macaca mulatta)) (UniProt Q9MZJ3); test: FACS rhesus whole blood, animal 31828
[29] = biological target: NKG2A on rhesus monkey (Macaca mulatta) NK cells (rhesus monkey (Macaca mulatta)) (UniProt Q9MZJ3); test: FACS rhesus whole blood, animal R00073 (6.1 kg)
[30] = biological target: NKG2A on cynomolgus monkey NK cells (cynomolgus monkey) (UniProt Q68VD2); test: FACS cynomolgus whole blood, animal AK729

Sequence of UniProt Q9MZJ3 (Q9MZJ3 whole entry): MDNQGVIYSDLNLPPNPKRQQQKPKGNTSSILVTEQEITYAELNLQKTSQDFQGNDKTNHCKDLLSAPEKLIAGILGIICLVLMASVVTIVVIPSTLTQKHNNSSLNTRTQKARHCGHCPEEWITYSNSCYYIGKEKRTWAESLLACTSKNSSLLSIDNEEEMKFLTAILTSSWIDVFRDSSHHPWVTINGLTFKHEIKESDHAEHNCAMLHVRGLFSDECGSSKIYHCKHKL
Sequence of UniProt Q68VD2 (Q68VD2 entry or part of it): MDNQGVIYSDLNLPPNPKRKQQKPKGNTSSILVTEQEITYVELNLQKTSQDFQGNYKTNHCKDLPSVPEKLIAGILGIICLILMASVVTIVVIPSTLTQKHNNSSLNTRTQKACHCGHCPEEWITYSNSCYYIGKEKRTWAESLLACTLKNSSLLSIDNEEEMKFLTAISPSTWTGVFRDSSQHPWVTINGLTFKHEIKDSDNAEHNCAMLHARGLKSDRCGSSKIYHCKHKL

Z199 anti-NKG2A monoclonal antibody
% NK+ (Mean) [1]: 96.3%
MFI (Mean) [1]: 106
MFI NK+ (Mean) [1]: 110
% NK+ [2]: 97.6%
MFI [2]: 31.1
MFI NK+ [2]: 31.8
% NK+ [3]: 97.9%
MFI [3]: 81.9
MFI NK+ [3]: 83.6
% NK+ [4]: 97.3%
MFI [4]: 30
MFI NK+ [4]: 30.9
% NK+ [5]: 89.6%
MFI [5]: 33.1
MFI NK+ [5]: 36.9
% NK+ [6]: 97%
MFI [6]: 123
MFI NK+ [6]: 126
% NK+ [7]: 97.8%
MFI [7]: 38.8
MFI NK+ [7]: 39.7
% NK+ [8]: 98.7%
MFI [8]: 37.1
MFI NK+ [8]: 37.6
% NK+ [9]: 91.9%
MFI [9]: 68.4
MFI NK+ [9]: 74.4
% NK+ [10]: 40.7%
MFI [10]: 1.6
MFI NK+ [10]: 2.4
% NK+ [11]: 96.4%
MFI [11]: 34
MFI NK+ [11]: 35.3
% NK+ [12]: 96.7%
MFI [12]: 105
MFI NK+ [12]: 109
% NK+ [13]: 97.7%
MFI [13]: 113
MFI NK+ [13]: 116
% NK+ [14]: 95.5%
MFI [14]: 223
MFI NK+ [14]: 234
% NK+ [15]: 97.1%
MFI [15]: 30.4
MFI NK+ [15]: 31.3
% NK+ [16]: 95.1%
MFI [16]: 144
MFI NK+ [16]: 152
% NK+ [17]: 96.9%
MFI [17]: 26.7
MFI NK+ [17]: 27.5
% NK+ [18]: 96.2%
MFI [18]: 63.8
MFI NK+ [18]: 66.3
% NK+ (Mean) [19]: 93.2%
MFI (Mean) [19]: 29.6
MFI NK+ (Mean) [19]: 30.6
% NK+ [20]: 99.1%
MFI [20]: 129
MFI NK+ [20]: 130
% NK+ [21]: 92.7%
MFI [21]: 126
MFI NK+ [21]: 136
% NK+ [22]: 99%
MFI [22]: 32.3
MFI NK+ [22]: 32.6
% NK+ [23]: 84.8%
MFI [23]: 62.3
MFI NK+ [23]: 73.4
% NK+ [24]: 98%
MFI [24]: 32.7
MFI NK+ [24]: 33.4
% NK+ [25]: 99.6%
MFI [25]: 34.9
MFI NK+ [25]: 35
% NK+ [26]: 99.1%
MFI [26]: 31.6
MFI NK+ [26]: 31.9
% NK+ [27]: 90.7%
MFI [27]: 28.2
MFI NK+ [27]: 31
% NK+ [28]: 99.8%
MFI [28]: 101
MFI NK+ [28]: 101
% NK+ [29]: 98%
MFI [29]: 31.9
MFI NK+ [29]: 32.6
% NK+ [30]: 99.4%
MFI [30]: 37.4
MFI NK+ [30]: 37.7
